Target: T1, GST-tagged yeast Sin3 PAH2 protein (residues 402-473) (S. cerevisiae, UniProt P22579 402-473)
T1 sequence (looked up): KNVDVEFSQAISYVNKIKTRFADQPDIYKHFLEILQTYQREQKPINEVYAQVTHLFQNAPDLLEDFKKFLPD
Experiment: fluorescence polarisation

IC50: 53.3 ± 2.4 µM
Ki: 11.4 µM
B1: unlabeled Ume6 SID peptide (Ume6 residues 516-531) (peptide, UniProt P39001 516-531, looked up)
peptide: LDDDLGTAAAVLSNMR
